Data: the DeepSol protein solubility set

Assay: soluble on expression in E. coli; label from the status in PepcDB or PDB records

Row | Sequence | soluble on expression in E. coli
1 | MAHHHHHHMPSVATASTRAVLAYPTDDAKLLVELTPTDRVAGGGSCGGFSGGGPMTQSDLGVGGSRMLQSLLVTRNVRDHLLDLRFSEAALSAQVTLQGDTVRDLIADITAAQSTEVSIRIDPKVGVILRGEGGPYGEVEAHVHATSEALLSLSREQSASTRVYTHHLALACGARGGTGGGGSSGSSAGAGGTGGGRLRGTGASVRDGRLSNADYILMGLAASAAGAGSSGGGGGAAVGTLFGGFERLTLQINAQRQLSVLHTQRDHELKVFVTVVVMPLSSVCDML | not soluble
2 | MGSDKIHHHHHHMIKGIGTNVDTRRVNGSIKRLVSELEFFKSIGFDYVEIPAAGLDVIARGRIIRKRLERVKELLSNYNFRYTVHAPDVINLKIKTNPWHYRVMEATIEFAGEINAEVVVYHYGEVDHSIDVPERVQRKAEIVALRELADLAKEKGVVIGVENVGHPVSEVLKLVRAVNHPNVKLVIDVGHLFIVSNYTGIDFYDELKKGLPYAVELHLSDNFGESPQTYQKIPDVEAFRFVYGIGDLHLPIGEGDIPYNKVFRIIRESGFDGIVILEINSMDRFADEYADSLNLLRKRLILAADNNKTKKRRKVK | not soluble
3 | MADGQVHDELMMDQQQQQGVVPQQGDIHLSPIDKDLGDAALENNVRQYHLDGVVVSEGMKRMIIDLQRHWLSEYHASREKCLVELTEKLHQEFMMDQQKIRSELLQQFKDELEQTRADLENKHRENLKMESAKLNEKHKRELVASRKKQWCWSCDNEAIYHCCWNTAYCSVECQQGHWQTHRKFCRRKKGNNAPGAPSVPAPQQVGAPMPPQQQ | not soluble
4 | MYETYHSGWIECITGSMFSGKSEELIRRLRRGIYAKQKVVVFKPAIDDRYHKEKVVSHNGNAIEAINISKASEIMTHNLTNVDVIGIDEVQFFDDEIVSIVEKLSADGHRVIVAGLDMDFRGEPFEPMPKLMAVSEQVTKLQAVCAVCGSSSSRTQRLINGKPAKIDDPIILVGANESYEPRCRAHHIVAPSDNNKEEL | not soluble
5 | MTVSSSAWMPRLISQQILSEYVKSLEVEADKVVIPGQNTPVFSWDRDGNGNLSIDTPLLKVRGESLATQADLTTISLTPGPKGELWQTSVERLDIKVDKHISLTFKNGVRID | not soluble
6 | MAHHHHHHSLQTGIPALPPIAQPLPVPAPAPVTPPAPTVPVPQEPAPVPQPPMPQPSVPQTPAPQKPVTPRPAPAPSRAPLLIQARANVPALVAGKKTTVPVLKTLTIPAERAAQLRQRGEVSASLQADLDTFLKSLAAPRDARFEQQDDGQWAVVQPNGLKVDAQATRAAVAKVLRDPRGVSANVVVTGQVAPQRTLDFFASRGITTFLATGFTSYYGSSPERVKNIHVGAQNFKDRLFEGDVFSFNKFIGPVSERNGYVPGLVIAGDQTASGVGGGICQVSTTVFRTLYGAGLGIVQRQNHSYQVFYYDPQGLDATIYQPQLDLKFANTTGGPIWFQTEWDDQEATLTITAFGQARDYQVQVDAPKTLKTVAPPKDRLIPDASLPAGQRKQVDWAAPGATIEVTRRFTRGGKTFKQDTLRSVYRPWPNIFRVGTKKEG | not soluble
7 | SNAMPSIRYPSTEFPALTGFTVPIPETWQPDPTMGTQFAARPHTPPQGFTPNIIGTVRRAATGALHNQRTELDQRATQLPDYAERGRTETTVDGFPAYHIEYAYRHHGTITIAQMITLVEVSHPHAVDIIQLTATCAGDQTADYWDTFRLMHADLTVQPHG | soluble
8 | CISMSKIAVVINPIAGGGRGKKVWKVLKPGLHALFEQTVYRISNRVNDLEAITDGLLAENPDSLLIIGGDGTLNHVLNGLIEKDKLKNPQTKIAFFNAGCGGDFTRQFPQQKMTEFLDRLSHNQFIKCDIGKITLAN | not soluble
9 | MVDLNKYKRFVETHGMKIPVLSLEYEYQAYLKLGRVEKAETLRKWLNERKG | not soluble
10 | SDTGFADSNNDSSPGEGSKRGNSGIEGPVPMDVELAAAKSKRLSEPFFLKNVLLEKSGDTSDLTALALSVHAVMLESGFVLLDHGSDKFSFSKKLLSVSLRYTLPELITRKDTNTVESVTVRFQNIGPRLVVYGTLGGSCKRVHMTSLDKSRFLPVIDLVVDTLKFEKQGSSSYYREVFMLWRMVKDELVIPLLIGLCDKAGLESPPCLMLLPTELKLKILELLPGVSIGYMACVCTEMRYLASDNDLWEHKCLEEGKGCLWKLYTGDVDWKRKFASFWRRKRLDLLARRNPPIKKSNPRFPTLFPDRRDRREPFDRFGPSDFYRFGLRDPRDRFGPRDPRDPHFYGFRY | soluble
11 | MIVMTQVRLSELVAPSFYEIHNDIKHNRYTHYWLKGGRGSTKSSFVSIEIILGVMKDPNANAVALRKVKETIKDSVFEQLVWAIEKLKVTEYWEIKHNPMELTYLPTGQKILFRGADKPRKIKSIKVSRGYVKFIWYEEVDEFLGMEEIRIINQSLMRGGEQFVVFYTYNPPNRVNAWVNEEILIDRPDRKVHHSTYLTVPRDWLGEQFFIEAEHLKKVNEKAYRHEYLGEVTGTGGEVFTNVKARKINDEEIKAFDRIKRGLDFGYAVDPAAYIVCHFDKTRRRLYIFHEIFQVGLSNRKLAELIKKENKSNKLVVADSAEPKSIAELRGYGINIRGAKKGPDSVEYGIKFLQDLEEIIIDPERCPNTLREFVNYELEKDKDGNFKAEFPDKNNHTIDAVRYALEDDMRTGGLSILK | soluble
12 | MSLTIAVYGLGKMGLPLAAVFADHGANVIGVDINERVVEMVNKGENHVKEEPGLDELVRRNVEEGRLRATTDGVWAAKSADVMIILVPTLADDRGNLKLEPVYDVANKIAKGLEKGDIVITEATMPPGTTESLIPILEKSGLKLGEFGLAHAPERTMTGTAIRDITGQYPKIVGASDERTLEAVIGLYETINRKGVIPMSSIKAAEAVKVFEGVYRDVNIALANELALWCEEHGLDALEIFNAANTQPYCHLHMPGAGVGGHCIPVYPWFVISLAKKTNPRLIKTAREINDSMPHHIVELTIRGLNEVGKPLKGSNVLVLGLTFRGGVREFTKSPAIDVIKELKEWGARVFTYDPLCNEEDAKRFGAEWKEDFKDVDAIVIVTDHKEFKDLNLEEIAKQVRNRVIVDGRNILDPRKAEKLGFVYLRVGRVEGHHHHHH | soluble
13 | MSLSDQSQIIAGFTLWHLSLPVTARRDHGIGSVAGAVEVVVLRLQADSGAVGYGEASPWVVFTGSVEATYAALDRYLRPLVLGRAVGDHAAIMEDARAAVAHCTEAKAALDTALYDLRARIAGVPVWALLGGRCRDRIPLSCSIADPDFDKDLALMQRLQDDDVRIIKLKTGFKDHAFDMMRLERLRADFPAFDIRVDYNQGLHHDVALARVRDVATFKPTFIEQPVKAHLRGLMARIRDAVDVPLLADESIFGPEDMAEHPEIADGVSIKIMKSGGLTRAQTVARMAAARGLSAYGGDMFEAGLAHLAGAHMIAATPEITLGCEFYQATYFLCDDILAAPFPVADGHVLVPDTPGLGVDVDEDALARFAVAREGHHHHHH | soluble
14 | SNAMAALPDKEKLLRNFTRCANWEEKYLYIIELGQRLAELNPQDRNPQNTIHGCQSQVWIVMRRNANGIIELQGDSDAAIVKGLMAVVFILYHQMTAQDIVHFDVRPWFEKMALAQHLTPSRSQGLEAMIRAIRAKAATLS | soluble
15 | MKKRGLENHPQNRKKIFERFPRLTKLSEKNLFQICKTTLLNERKMKSIQNTIDELRKLSAGKSSEEVQRLKEMQKHSKMFGEIFGVYGATVGKPKPKEKEVKVPTKEMTFEEKRKLLETTFPNKVTPGQRAKARETLNFIANNPEIYAIASPQDPSSKAKTDPVSRPQLNIISSFSWPITSGSDWSPHGSEFNDLTAPRVGKLTPVPQWSDMKKSSLKLGTEDNFSKMSYDPAYSNTTQSQSVTTLYNETSTPYYDDSDLGTPLHTCVQ | not soluble
16 | MGSDKIHHHHHHMKEKVVLAYSGGLDTSVILKWLCEKGFDVIAYVANVGQKDDFVAIKEKALKTGASKVYVEDLRREFVTDYIFTALLGNAMYEGRYLLGTAIARPLIAKRQVEIAEKEGAQYVAHGATGKGNDQVRFELTYAALNPNLKVISPWKDPEFLAKFKGRTDLINYAMEKGIPIKVSKKRPYSEDENLMHISHEAGKLEDPAHIPDEDVFTWTVSPKDAPDEETLLEIHFENGIPVKVVNLKDGTEKTDPLELFEYLNEVGAKNGVGRLDMVENRFIGIKSRGVYETPGATILWIAHRDLEGITMDKEVMHLRDMLAPKFAELIYNGFWFSPEMEFLLAAFRKAQENVTGKVTVSIYKGNVMPVARYSPYSLYNPELSSMDVEGGFDATDSKGFINIHALRLKVHQLVKKGYQR | soluble
17 | MPDYDLITILGPTASGKTPFAAALAHELNTEIISADSRQIYRGMDLGTGKDLADYTVDGHPIPYHLIDIADPGYKYNVFEYQRDFLISYESIKQKGCLPVLCGGTGMYLESVLKGYKLMPVPENPELRARLANHSLEELTEILKQYKTLHNSTDVDTVKRAIRAIEIEEYYAVHPVPEREFPKLNSLIIGVDIDRELRREKITRRLKQRLDEGMVDEVRRLTEQGISPDDLIYYGLEYKFLTLYVIGKLTYEEMFTELETAIHQFAKRQMTWFRGMERRGFTIHWVSAELPMEEKIAFVIEKLRGNLEHHHHHH | soluble
18 | MEEMRDNDVPVQQALFDMGPDEEVGYRVPIACQVAGITYRQLDYWARTKLVEPTIRTARGSGSQRLYSFKDILVLKIVKRLLDTGISLQNIRLAVDKLRNRGVDDLAEITLVSDGTTVYECRSNEEVIDLLGGGQGVFGIAVPGIVRELTGTISSFPSEKISDFLSNSPAAGGIDELAARRLRKTS | not soluble
19 | MGHHHHHHSHMAATKRKRRGGFAVQAKKPKRNEIDAEPPAKRHATAEEVEEEERDRIPGPVCKGKWKNKERILIFSSRGINFRTRHLMQDLRMLMPHSKADTKMDRKDKLFVINEVCEMKNCNKCIYFEAKKKQDLYMW | not soluble
20 | MTQIGLYPSALTKPFELSLSAIKSVLEPENPSYSKRVPNCQKCGQHGRKSRLKGHKRSCPFRECPCAKVCVFSNKRSSRVSLE | not soluble
21 | MKIHKTLTPWAAALLLASTAWPALAEVSTVRLAKQFGIGYLPLTLVEELDLLEKHAAASGHEITTEWLRFTGGSGMNEALLSGNLDLAAGGTGPLFTIWARTRENLKIKGVAALASMPLHLMTSNPEVKSLADFSQGDKIALPAVKTSIQAVTLQMASKQAFGPDKATAMDAFTVSMGHPDAQLALTGGQSEVTAHFGSPPFQNLEAKVEGIHKVLDSYDVLGGSHTFTVVWAADKFISENPEITKAFMAALEESMELISTNPEKAAEIWMAAERSPLSREEVVALIRDEQTVWTTTPERTLPYVEFLSESGLIKTSAEDWSEIFFDTMSGKEGS | not soluble
22 | MAASEAAVVSSPSLKTDTSPVLETAGTVAAMAATPSARAAAAVVAAAARTGSEARVSKAALATKLLSLSGVFAVHKPKGPTSAELLNRLKEKLLAEAGMPSPEWTKRKKQTLKIGHGGTLDSAARGVLVVGIGSGTKMLTSMLSGSKRYTAIGELGKATDTLDSTGRVTEEKPYDKITQEDIEGILQKFTGNIMQVPPLYSALKKDGQRLSTLMKRGEVVEAKPARPVTVYSISLQKFQPPFFTLDVECGGGFYIRSLVSDIGKELSSCANVLELTRTKQGPFTLEEHALPEDKWTIDDIAQSLEHCSSLFPAELALKKSKPESNEQVLSCEYITLNEPKREDDVIKTC | soluble
23 | NTQLNIKMQPDTQTLDEVVVIGYGTVKKRDLTGAVASVKSEDIVRMPTSNVLEAIQGQVAGLDITRSSGEAGSGVNMTLRGTRSINGDNSPLFIIDGMEGSYDELNPNDIASIEVLKDASSTAVYGAAGANGVIIITTKTPKKDK | not soluble
